One block for each molecule: values may come before it.
T1: CcmS-His (His-tagged CcmS from Nostoc sp. PCC 7120) (Nostoc sp. PCC 7120, UniProt A0ACD6B954 1-142, dye label on the His tag in the MST assays)
T1 chain: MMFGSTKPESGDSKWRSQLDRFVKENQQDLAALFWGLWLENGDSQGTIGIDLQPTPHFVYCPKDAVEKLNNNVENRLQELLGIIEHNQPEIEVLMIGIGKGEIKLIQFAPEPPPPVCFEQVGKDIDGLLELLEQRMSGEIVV

B1: CcmS from Nostoc sp. PCC 7120 (as used for crystallization, Native-PAGE and gel filtration; tag not told) (natural protein, UniProt A0ACD6B954 1-142, looked up)
chain: T1 chain
notes: CcmS, Nostoc sp; ccmS encodes a protein of 142 amino acids; GenBank BAB73249.1; crystal structures PDB 8ZLH (alone) and 8ZLZ (with CcmK1-C15); also called CcmS dimer; purified CcmS; source: E. coli BL21(DE3), purified (Ni2+-NTA or Strep-tag XT, gel filtration)
B2: CcmK1-His (His-tagged CcmK1 from Nostoc sp. PCC 7120) (natural protein, UniProt A0ACD6B949 1-114, looked up)
chain: MSIAVGMVETLGFPAVVEAADAMVKAARVTLVGYEKIGSGRVTVIVRGDVSEVQASVAAGVESVKRVNGGQVLSTHIIARPHENLEYVLPIRYTEDVEQFRENVNAIRPFGRRP
notes: CcmK1, carboxysome shell protein, Nostoc sp; GenBank BAB72824.1; synthesized gene in pET-22b(+); The His tag is named for the pull-down only; also called CcmK1 hexamer; source: E. coli BL21(DE3), purified (Ni2+-NTA, gel filtration)

Legend:
[1] = target: CcmS-His (His-tagged CcmS from Nostoc sp. PCC 7120) (Nostoc sp. PCC 7120); test: MST; His-tagged CcmS labelled with dye as target at 0.25 μM; non-labelled ligand in 2-fold steps, 16 capillaries; Monolith NT.115, 25 °C, 60% excitation power
[2] = target: CcmK1-ΔC12, His-tagged (C-terminus-truncated CcmK1 from Nostoc sp. PCC 7120) (Nostoc sp. PCC 7120); test: SEC; gel filtration chromatography of CcmK1 or CcmK1-ΔC12 alone (Supplementary Figs. S4 and S5)
[3] = target: the molecule itself; test: crystal structure; CcmS mixed with CcmK1-C15 at a molar ratio of 1:10, space group P41212, 1.67 Å; 0.2 M lithium sulfate, 0.1 M Tris pH 8.5, 1.26 M ammonium sulfate, 18 °C
[4] = target: B2; test: SEC + native gel or EMSA; molecular mass of the CcmS/CcmK1 complex by gel filtration chromatography and Native-PAGE (Supplementary Figs. S3B and S5A); settings: both partners purified
[5] = target: the molecule itself; test: SEC; gel filtration chromatography of CcmK1 or CcmK1-ΔC12 alone (Supplementary Figs. S4 and S5)
[6] = target: T2, CcmS-His (His-tagged CcmS from Nostoc sp. PCC 7120) (Nostoc sp. PCC 7120, UniProt A0ACD6B954 1-142, dye label on the His tag in the MST assays); test: MST; His-tagged CcmS labelled with dye as target at 0.25 μM; non-labelled ligand in 2-fold steps, 16 capillaries; Monolith NT.115, 25 °C, 60% excitation power; settings: both partners purified
T2 construct: CcmS, Nostoc sp; ccmS encodes a protein of 142 amino acids; GenBank BAB73249.1; synthesized gene in pET-22b(+); also called CcmS dimer; source: E. coli BL21(DE3), purified (Ni2+-NTA, gel filtration)

[7] = target: T1, CcmS-His (His-tagged CcmS from Nostoc …); test: MST

Kd [1]: 41.5 µM
Molecule: CcmK1-C12 (12-amino acid C-terminal peptide of CcmK1)

stoichiometry N [2]: 6
Molecule: CcmK1-ΔC12, His-tagged (C-terminus-truncated CcmK1 from Nostoc sp. PCC 7120) (domain or fragment)

Molecule: B1
stoichiometry N [3]: 2 | stoichiometry N [4]: 2 CcmS dimers per CcmK1 hexamer

Molecule: B2
stoichiometry N [5]: 6 | Kd [6]: 34.5 µM

Kd [7]: 101 µM
Molecule: FRENVNAIRPFGARP [CcmK1-C15 R112A peptide]
